One block for each binder: values may come before it.
How the values were obtained:
[1] = target: T1, LAG3 Protein, Human, Recombinant (His Tag) (Sino Biological Catalog No. 16498-H08H) (human, UniProt P18627 23-450); assay: SPR binning on LAG3-His; competitor BMS
T1 construct: Bought protein; also called hLAG3-His; LAG3-His; not shown: His tag
T1 sequence (looked up): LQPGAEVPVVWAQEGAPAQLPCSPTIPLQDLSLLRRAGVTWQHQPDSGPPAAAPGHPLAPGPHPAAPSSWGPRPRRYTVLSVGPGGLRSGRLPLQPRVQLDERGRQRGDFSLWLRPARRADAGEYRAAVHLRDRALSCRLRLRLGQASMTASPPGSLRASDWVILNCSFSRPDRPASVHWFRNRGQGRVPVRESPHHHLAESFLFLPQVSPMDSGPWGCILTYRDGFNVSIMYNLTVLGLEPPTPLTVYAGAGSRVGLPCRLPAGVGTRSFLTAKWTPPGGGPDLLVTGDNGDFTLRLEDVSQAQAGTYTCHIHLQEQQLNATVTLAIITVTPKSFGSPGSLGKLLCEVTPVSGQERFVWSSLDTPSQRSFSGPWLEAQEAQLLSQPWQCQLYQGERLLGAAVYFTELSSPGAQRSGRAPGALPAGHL
Experimental: (§1) The chip surface was regenerated after each cycle with 25 mM NaOH followed by HBS-EP wash provided in the kit.

[2] = target: T1, LAG3 Protein, Human, Recombinant (His …); assay: SPR binning on LAG3-His; competitor 17
Experimental: as §1

[3] = target: T1, LAG3 Protein, Human, Recombinant (His …); assay: SPR (Biacore), sdAb captured by anti-human Fc, LAG3-His analyte
Experimental: The binding of the single domain antibodies to recombinant human LAG3 protein (rhLAG3) was examined by Biacore™ assay. […] The coating was carried out according to the manufacturer’s instructions accompanying the kit (Catalog No. BR-1008-39, GE). […] The chip surface was regenerated after each cycle with 25 mM NaOH followed by HBS-EP wash provided in the kit.

[4] = target: T1, LAG3 Protein, Human, Recombinant (His …); assay: SPR binning on LAG3-His; competitor 21
Experimental: as §1

[5] = target: T1, LAG3 Protein, Human, Recombinant (His …); assay: SPR binning on LAG3-His; competitor 37
Experimental: as §1

[6] = target: T2, human LAG3 expressed on cells (human, UniProt P18627 23-525); assay: cell-based or functional assay
T2 sequence (looked up): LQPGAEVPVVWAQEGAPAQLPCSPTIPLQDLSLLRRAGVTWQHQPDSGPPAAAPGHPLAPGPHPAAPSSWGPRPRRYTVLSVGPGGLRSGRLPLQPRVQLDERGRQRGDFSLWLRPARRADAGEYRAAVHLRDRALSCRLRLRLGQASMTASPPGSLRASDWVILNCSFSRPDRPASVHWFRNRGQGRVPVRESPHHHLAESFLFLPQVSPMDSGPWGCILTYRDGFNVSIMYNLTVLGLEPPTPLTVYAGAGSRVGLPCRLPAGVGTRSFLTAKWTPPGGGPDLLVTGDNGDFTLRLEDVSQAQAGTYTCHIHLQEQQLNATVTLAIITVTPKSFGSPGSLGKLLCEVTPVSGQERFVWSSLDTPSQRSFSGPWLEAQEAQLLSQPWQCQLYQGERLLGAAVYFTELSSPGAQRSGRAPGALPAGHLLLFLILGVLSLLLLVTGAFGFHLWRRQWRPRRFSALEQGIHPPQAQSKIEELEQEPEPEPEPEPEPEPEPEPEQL

[7] = target: T1, LAG3 Protein, Human, Recombinant (His …); assay: SPR binning on LAG3-His; competitor 1
Experimental: as §1

[8] = target: T1, LAG3 Protein, Human, Recombinant (His …); assay: SPR binning on LAG3-His; competitor 73
Experimental: as §1

[9] = target: T1, LAG3 Protein, Human, Recombinant (His …); assay: SPR binning on LAG3-His; competitor 25
Experimental: as §1

[10] = target: T1, LAG3 Protein, Human, Recombinant (His …); assay: SPR binning on LAG3-His; competitor 20
Experimental: as §1

[11] = target: T1, LAG3 Protein, Human, Recombinant (His …); assay: SPR binning on LAG3-His; competitor 27
Experimental: as §1

[12] = target: T1, LAG3 Protein, Human, Recombinant (His …); assay: SPR binning on LAG3-His; competitor 18
Experimental: as §1

[13] = target: T1, LAG3 Protein, Human, Recombinant (His …); assay: SPR binning on LAG3-His; competitor 24
Experimental: as §1

[14] = target: T2, human LAG3 expressed on cells; assay: cell-based or functional assay; remark: listed apart in the source
[15] = target: human LAG3 expressed on cells (human) (UniProt P18627); assay: cell ELISA, 293T-LAG3 cells
[16] = target: T1, LAG3 Protein, Human, Recombinant (His …); assay: ELISA, coated hLAG3-His
Experimental: Plates were coated with 100 µL per well of Coating Solution, and then covered, and incubated overnight (12-18 hours) at 2-8° C. The wells were aspirated and washed 1 time with >200 µL of Wash buffer per well, inverted and tapped on absorbent paper to remove excess liquid. The plates were blocked with 200 µL per well with Blocking buffer (1×PBS+4% milk) for 1 hour at room temperature, aspirated, inverted, and tapped on absorbent paper to remove excess liquid. Standards and sample dilutions were prepared in Blocking buffer. 100 µL of standards (in duplicate) and samples were pipetted into designated wells. After incubation for 1 hour at room temperature with gentle continual shaking (~500 rpm), the wells were aspirate and washed 3 times with >200 µL of Wash buffer per well, inverted and tapped on absorbent paper to remove excess liquid.
The primary antibody solution was diluted with Blocking buffer. See Table 14 for recommended primary antibody dilution. 100 µL of the primary antibody solution was added into each well and incubated for 2 hours at room temperature with gentle continual shaking (~500 rpm). The wells were aspirated and washed 3 times with >200 µL of Wash buffer per well, inverted and tapped on absorbent paper to remove excess liquid. The working solution of secondary antibody was made with Blocking buffer by diluting the secondary antibody by 2,500 times. 100 µL of secondary antibody working solution was added into each well and incubated for 30 minutes at room temperature. The wells were aspirated and washed 5 times with >200 µL of Wash buffer per well, inverted and tapped on absorbent paper to remove excess liquid. 100 µL of TMB substrate solution (Biopanda, TMB-S-004) was added to each well and incubated for 30 minutes at room temperature. 100 µL of Stop solution (Solarbio, C1058) was added to each well. Absorbance at 450 nm was measured within 30 minutes of adding Stop solution. Results were calculated using a log-log or 4-parameter curve fit.

B1: sdAb No. 1 (VHH)
VHH: QLQLVESGGGLVQAGGSLRLSCAASGFTFDDYAIGWFRQAPGKEREGVSCIRSSDGSTYYADSVKGRFTISSDNAKNTVYLQMNSLKPEDTAVYYCAKDNYSDCRGPYHYWGQGTQVTVSS
notes: the tested form was captured by anti-human Fc, its Fc is not described; also called sdAb 1; not shown: Fc part implied by anti-human Fc capture
- RU [1]: 37.4 RU
- RU [2]: -6.9 RU
- koff [3]: 5.05e-08 s⁻¹
- kon [3]: 4.77e+06 M⁻¹ s⁻¹
- RU [4]: -114 RU
- RU [5]: -8.4 RU
- EC50 for IL-2 rescue, hLAG3 Jurkat T system [6]: 15.7 nM
- Efficacy (IL-2 production, BMS = 100%) [6]: 41.4%
- RU [7]: 22 RU
- RU [8]: -11.6 RU
- RU [9]: 30 RU
- RU [10]: -14.8 RU
- RU [11]: 4.9 RU
- RU [12]: -10.7 RU
- RU [13]: -10.6 RU
- IL-2, % of BMS, at 0.005080526 ug/mL [14]: 8.4%
- IL-2, % of BMS, at 0.015241579 ug/mL [14]: 8.77%
- IL-2, % of BMS, at 0.045724737 ug/mL [14]: 6.07%
- IL-2, % of BMS, at 0.137174211 ug/mL [14]: 14.2%
- IL-2, % of BMS, at 0.411522634 ug/mL [14]: 14.8%
- IL-2, % of BMS, at 1.234567901 ug/mL [14]: 30.7%
- IL-2, % of BMS, at 3.703703704 ug/mL [14]: 46.4%
- IL-2, % of BMS, at 11.11111111 ug/mL [14]: 45.7%
- IL-2, % of BMS, at 33.33333333 ug/mL [14]: 54.4%
- IL-2, % of BMS, at 100 ug/mL [14]: 51.3%

B3: sdAb No. 25-B5 (VHH)
VHH: QVQLVESGGGLVKPGGSLRLSCAASGSIESFSFMGWYRQAPGKQREWVAGFTGAASLSFSTYTDAVKGRFTISRDNAKNSLYLQMNSLRAEDTAVYYCNVDPWSQSWPGRYWGQGTTVTVSS
notes: Humanized sdAb No. 25; not shown: Fc part implied by anti-human IgG1 Fc detection
- OD450 at 0.122 nM [15]: 0.086
- OD450 at 0.366 nM [15]: 0.113
- OD450 at 1.097 nM [15]: 0.124
- OD450 at 3.292 nM [15]: 0.196
- OD450 at 9.877 nM [15]: 0.21
- OD450 at 29.63 nM [15]: 0.254
- OD450 at 88.89 nM [15]: 0.311
- OD450 at 266.67 nM [15]: 0.608
- EC50 [16]: 452 nM
- OD450 at 0.061 nM [16]: 0.036
- OD450 at 0.1829 nM [16]: 0.04
- OD450 at 0.5487 nM [16]: 0.038
- OD450 at 1.6461 nM [16]: 0.048
- OD450 at 4.9383 nM [16]: 0.062
- OD450 at 14.815 nM [16]: 0.084
- OD450 at 44.445 nM [16]: 0.114
- OD450 at 133.335 nM [16]: 0.163

Next, values leading:

- RU [1]: 27 RU
- RU [2]: -12.5 RU
- Kd [3]: 0.182 nM
- koff [3]: 0.000975 s⁻¹
- kon [3]: 5.35e+06 M⁻¹ s⁻¹
- RU [4]: -10.2 RU
- RU [5]: -6.9 RU
- EC50 for IL-2 rescue, hLAG3 Jurkat T system [6]: 42.6 nM
- Efficacy (IL-2 production, BMS = 100%) [6]: 56.4%
- RU [7]: -7.3 RU
- RU [8]: -9.7 RU
- RU [9]: 9.8 RU
- RU [10]: -117 RU
- RU [11]: -2.2 RU
- RU [12]: -10.6 RU
- RU [13]: -9.6 RU
- IL-2, % of BMS, at 0.005080526 ug/mL [14]: 0.495%
- IL-2, % of BMS, at 0.015241579 ug/mL [14]: 3.55%
- IL-2, % of BMS, at 0.045724737 ug/mL [14]: 3.63%
- IL-2, % of BMS, at 0.137174211 ug/mL [14]: 6.64%
- IL-2, % of BMS, at 0.411522634 ug/mL [14]: 15.5%
- IL-2, % of BMS, at 1.234567901 ug/mL [14]: 19.5%
- IL-2, % of BMS, at 3.703703704 ug/mL [14]: 24.5%
- IL-2, % of BMS, at 11.11111111 ug/mL [14]: 30.6%
- IL-2, % of BMS, at 33.33333333 ug/mL [14]: 36.8%
- IL-2, % of BMS, at 100 ug/mL [14]: 41%
B2: sdAb No. 73 (VHH)
VHH: QVQLVESGGGLVQPGGSLKLSCTASGFTLDYYAIAWFRQAPGKEREAVSCISSSDGSTRYADSVKGRFTISRDNAKNTVYLQMNSLKPEDTAVYYCAADPYGDCRGPYDYWGQGTQVTVSS
notes: Fc not described; also called sdAb 73; not shown: Fc part implied by anti-human Fc capture

- OD450 at 0.122 nM [15]: 0.056
- OD450 at 0.366 nM [15]: 0.07
- OD450 at 1.097 nM [15]: 0.095
- OD450 at 3.292 nM [15]: 0.166
- OD450 at 9.877 nM [15]: 0.306
- OD450 at 29.63 nM [15]: 0.399
- OD450 at 88.89 nM [15]: 0.888
- OD450 at 266.67 nM [15]: 1.47
- OD450 at 0.061 nM [16]: 0.037
- OD450 at 0.1829 nM [16]: 0.039
- OD450 at 0.5487 nM [16]: 0.037
- OD450 at 1.6461 nM [16]: 0.044
- OD450 at 4.9383 nM [16]: 0.053
- OD450 at 14.815 nM [16]: 0.069
- OD450 at 44.445 nM [16]: 0.085
- OD450 at 133.335 nM [16]: 0.128
B4: sdAb No. 25-B6 (VHH)
VHH: QLQLVESGGGLVKPGGSLRLSCAASGSIESFSFMGWYRQAPGKQREWVAGFTGAASLSFSTYTDAVKGRFTISRDNAKNSVYLQMNSLRAEDTAVYYCNVDPWSQSWPGRYWGQGTTVTVSS
notes: as for B3

From patent US20230303690A1 (published 2023)
